Laboratory results reported in patent US20240117018A1 (UNIVERSITY OF MARYLAND BALTIMORE, published 2024).
Read-outs that look alike come from different tables or passages of the source.

Experiments:
[1] = biological target: monomeric HIV-1 Ba-L gp120 (HIV-1 Ba-L)
[2] = biological target: monomeric HIV-1 Ba-L gp120 (HIV-1 Ba-L); remark: listed apart in the source
[3] = biological target: monomeric HIV-1 Ba-L gp120 (HIV-1 Ba-L); remark: listed apart in the source

B1: N49P7 (antibody)
heavy: not shown
light: QSALTQPRSVSASPGQSVTISCTGTHNLVSWCQHQPGRAPKLLIYDFNKRPSGVPDRFSGSGSGGTASLTITGLQDDDDAEYFCWAYEAFGGGTKLTVLGQPKAAPSVTLFPPSSEELQANKATLVCLISDFYPGAVTVAWKADSSPVKAGVETTTPSKQSNNKYAASSYLSLTPEQWKSHRSYSCQVTHEGSTVEKTVAPTECS
Binder B1 has a Kd [1] of 0.86 nM.

B2: N49P7.1 (antibody)
heavy: not shown
light: QSALTQPRSVSASPGQSVTISCTGTHNLVSWCQHQPGRAPKLLIYDFNKRPSGVPDRFSGSGSGGTASLTITGLQDDDDAEYFCWAYEAFGGGTKLTVLRQPKAAPSVTLFPPSSEELQANKATLVCLISDFYPGAVTVAWKADSSPVKAGVETTTPSKQSNNKYAASSYLSLTPEQWKSHRSYSCQVTHEGSTVEKTVAPTECS
Binder B2 has a Kd [2] of 1.14 nM.

B3: N49P11 (antibody, V domains shown)
V domain 1: SAELVQSGAVVKKPGTSVKVSCQAYGYTFTDYLIHWLRQAPGQGLEWMGWMNPVYGQVNYAQNFQGRVSMTRDIYRETAFLEVRDLKTDDTGTYYCVRDTGDGSRRHFDSINWFLDLWGRGTWIRVAP
V domain 2: QCVLTQPRSVSGSPGQSVTISCTGTHNYVSWCQHHPGNAPKLLLYDFDKRPSGISDRFSGSRSGNTASLTISGLQPEDEADYFCWAFEAFGGGTKVLVLR
Work on B3 yielded a Kd [3] of 15.6 nM.
